Experimental data published in patent US20120289467A1 (UNIVERSITY OF MARYLAND BALTIMORE, published 2012).
One block for each binder: values may come before it. No end group written: not given here.

What was measured:
[1] = biological target: T1, VE-cadherin fragment (UniProt P33151 48-477, limits assumed); test: not stated on the sheet; the legend calls it the dissociation constant for the interaction with VE-cadherin
T1 construct: also called VE-caherin; immobilized VE-cadherin fragment
T1 sequence (looked up): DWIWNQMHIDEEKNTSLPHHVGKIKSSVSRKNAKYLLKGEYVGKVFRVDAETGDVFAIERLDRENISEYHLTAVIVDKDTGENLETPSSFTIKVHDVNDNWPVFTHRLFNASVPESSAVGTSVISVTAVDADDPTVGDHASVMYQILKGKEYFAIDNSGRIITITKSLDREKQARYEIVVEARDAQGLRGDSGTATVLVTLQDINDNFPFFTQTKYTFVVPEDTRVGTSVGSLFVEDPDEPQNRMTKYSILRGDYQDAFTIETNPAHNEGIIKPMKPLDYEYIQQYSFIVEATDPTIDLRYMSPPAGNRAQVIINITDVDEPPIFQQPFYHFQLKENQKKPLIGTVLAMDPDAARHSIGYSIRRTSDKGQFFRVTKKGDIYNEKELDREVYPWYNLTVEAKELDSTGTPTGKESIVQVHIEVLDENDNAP

[2] = biological target: T1, VE-cadherin fragment; test: SPR (BIAcore), VE-cadherin fragment immobilized; monomeric peptide
Protocol: (§1) To test binding activities of fibrin beta chain derived peptides of the invention to VE-caherin, surface plasmon resonance (SPR) methods are, for example, used. SPR experiments are performed using, for example, a BIAcore 3000 biosensor (BIAcore AB, Uppsala, Sweden), which can be used to measure the association/dissociation of peptides or proteins in real-time (see, for example, Karlsson, R., and Falt, A. J. Immunol. Methods (1997) 200, 121-133; Hall, D. Anal. Biochem. (2001) 288, 109-125; see also Gorlatov et al. Biochemistry (2002) 41, 4107-4116 for other VE-cadherin binding assays including, for example, SPR IAsys Analysis based assays and ELISA based assays). An exemplary method is described in the following passage. VE-cadherin fragment is covalently coupled via epsilon-amino groups to the activated surface of a CM5 biosensor chip by the procedure described by, for example, Karlsson, R., and Falt, A. (J. Immunol. Methods (1997) 200, 121-133; see also Gorlatov et al. Biochemistry (2002) 41, 4107-4116). […] Samples comprising, for example, fibrin beta chain derived peptides β15-42, β15-64, and (β15-66)2, at different concentrations are injected in duplicate in at least three separate experiments and the association/dissociation between the immobilized and the added peptides is monitored as the change in the SPR response. […]

[3] = biological target: T1, VE-cadherin fragment; test: SPR (BIAcore), VE-cadherin fragment immobilized, peptide added up to 200 nM; dimeric peptide, added up to 200 nM
Protocol: as §1

[4] = biological target: T1, VE-cadherin fragment; test: SPR (BIAcore), ratio of Kd values, reference β15-42
Protocol: as §1

[5] = biological target: T1, VE-cadherin fragment; test: not stated on the sheet; the legend calls it the dissociation constant for the interaction with VE-cadherin; remark: listed apart in the source
[6] = biological target: T2, VE-cadherin fragment, P33151; test: plate assay read as absorbance at 450 nm, VE-cad(1-5) concentration varied (0-0.5 µM); format not described in the text
T2 chain: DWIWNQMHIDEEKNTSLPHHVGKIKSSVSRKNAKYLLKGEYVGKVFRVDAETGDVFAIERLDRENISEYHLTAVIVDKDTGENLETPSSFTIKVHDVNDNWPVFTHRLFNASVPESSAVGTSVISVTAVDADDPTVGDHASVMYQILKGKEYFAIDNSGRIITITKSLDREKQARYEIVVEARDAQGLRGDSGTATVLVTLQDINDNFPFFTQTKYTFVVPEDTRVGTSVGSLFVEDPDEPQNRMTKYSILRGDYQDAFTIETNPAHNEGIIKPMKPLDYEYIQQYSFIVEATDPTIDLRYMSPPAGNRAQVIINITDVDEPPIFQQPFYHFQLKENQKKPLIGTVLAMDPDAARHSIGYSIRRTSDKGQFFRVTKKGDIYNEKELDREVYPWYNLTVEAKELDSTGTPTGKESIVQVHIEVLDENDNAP

B1: (β15-44)2 dimer peptide (peptide)
peptide: GHRPLDKKREEAPSLRPAPPPISGGGYRCG
modifications: also: homodimer, Cys43-Cys43 disulfide
notes: Synthetic homodimer of two identical 30-residue chains, linked by a Cys43-Cys43 disulfide bond; also called dimeric (β15-44)2
Kd [1]: 21 nM

Binder: GHRPLDKKREEAPSLRPAPPPISYCG (also: homodimer linked through added Cys25) [(β15-40)2 dimer peptide]
EC50 (read off the curve) [6]: 40 nM

Next, values leading:

Kd [2]: 252000 nM
Binder: GHRPLDKKREEAPSLRPAPPPISGGGYR (also called monomeric β15-42) [β15-42 monomeric peptide]

Kd [3]: 70 nM
fold increase in affinity against β15-42 [4]: 3600 fold
Kd [5]: 27 nM
B2: (β15-66)2 dimer peptide (peptide)
peptide: GHRPLDKKREEAPSLRPAPPPISGGGYRARPAKAAATQKKVERKAPDAGGCG
modifications: also: homodimer, Cys65-Cys65 disulfide
notes: Homodimer of two β15-66 chains, disulfide-linked via Cys65; Gly66 is not natural; also called dimeric (β15-66)2
